# Measured values reported in article PMC7353701, “Molecular characterization and heterologous expression of two α-glucosidases from Metschnikowia spp, both producers of honey sugars” (Microbial Cell Factories, 2020).
# Where a chain is given by its changes, count along the chain named.
# B1: Mg-αGlu (Metschnikowia gruessii) (protein)
# chain: MTDAIWWKDASVYQIWPASYKDSNGDGFGDIPGVISTLDYIKNLGVDVIWLSPMYDSPQDDMGYDVADYENVYPKYGTLEDMDTLISEVHARGMKLILDLVINHTSTAHKWFEESKSDKENPKRDWYIWKPARYDEDGNRHPPNNWQSYFSGSAWEYDENTDEYYLHLFAKSQPDLNWENDETRQAIYDSALTFWFEKGVDGFRIDTAGMYSKVQTFEDAPIVFPDLEWQPCTDFHQSGPRIHEFHKEMFEKVTSKYDAMTVGEVGHSSREDALKYVSAQEKEMNMMFLFDLVEVGSNPSDRFRYDGFKLTDFKQAVSNMSSFSEGTDAWSTCFFENHDQPRCITRFGNDSPEYLFRSGKMLATLLTSLTGTLFIYQGQEFGMTNVPLEWNIDEYKDINTVNYYQLYVEKNGEENVGELIKNINLVARDNARTPVQWDGTENGGFSTGQPWMRVNDNYQQVNAASQVNDPESLYNFYKKALEVRKEHKDVLIYGSLEIIDFDDERVFSFYKKSGDKTAYVVLNFTKDPIDFKPAVESELELVLTNEREIRDDVLSPYESRLYIVKN
# B2: Mr-αGlu (Metschnikowia reukaufii) (protein)
# chain: B1 chain with T233A, S300K, R304I, S318A
# Key:
# [1] = substrate: OC[C@H]1O[C@@](CO)(O[C@H]2O[C@H](CO)[C@@H](O)[C@H](O)[C@H]2O)[C@@H](O)[C@@H]1O; test: initial rates, Michaelis-Menten fit; type: biochemical, Metschnikowia gruessii; conditions: 0-225 mM sucrose, standard assay 50 mM sodium phosphate pH 7.0, 30 °C
# [2] = substrate: OC[C@H]1O[C@@](CO)(O[C@H]2O[C@H](CO)[C@@H](O)[C@H](O)[C@H]2O)[C@@H](O)[C@@H]1O; test: initial rates, Michaelis-Menten fit; type: biochemical, Metschnikowia reukaufii; conditions: 0-225 mM sucrose, standard assay 50 mM sodium phosphate pH 7.0, 30 °C
Protein,Km [1] [mM],kcat [1] [s⁻¹],kcat/Km [1] [M⁻¹ s⁻¹],Km [2] [mM],kcat [2] [s⁻¹],kcat/Km [2] [M⁻¹ s⁻¹]
B1,54.1 ± 5.8,270 ± 10.9,4900 ± 700,,,
B2,,,,64.9 ± 4.6,477 ± 13.7,7400 ± 700
